Here are results for ten molecules from PMC11098746 (2024).

The labels stand for the following.
B1: 56 (protein)
chain: FLRNKEHANLINSYNDIVEDINIKKEEKSSSEPPFIPIKNKIDNVHTKNNNQYNLHNNKANKAHLTYGTHTSFLQNCAINDCVDVDNKDSEINNIAKEKDDNNNNNGAKQIEEKNKINKADLHRQNELNLQSGKNEQDINKNEKGKQDISNSNAENKKDVKEGVKELEEKKKEEKISDDHKVEENKKSDDHKVEENKKSDDHKVEENKKSDDHKIEEVKKVEEHEEDEEEDKKEKKSENKNKDENKDENDEDNDEISDEDEVDDDVEEDKNENDDIDDDKKETDKTHLEEEENEIIEKEFSDKKKNGKNKDTKKEKSKDTEKEKSKDIEKEKSKDKEKEKSKDKEKEKGKDKEKEKSKDIEKEKEKDKDIEKEKSKDTAKEKEKDKDIEKEKSKDMEKLKNKQNDEKKKDDNEKKKNDKQDIHDDNDDENDMEEIEENDDEEDEDEDMENKKKKKKGKNGNENGNENGAENGNENGNENGNENENKNEAENENENENENENGNENENEKENEKDKNIKEIENVANANKENYEKINKNSEITITKSNIDIYNNNRNNDIDKVNNHIFTNQQKKHNLHNEQNKFNEALNVATNHKNHYEEKKKYESNMFNVDKRMHKNLASMDTILHNLNDKLSHHKDLKNRELKLKFEAMSRIKEYKIYNELIQKSVEILTLRLTKINDELKKLKDISENALQKYINEKGYGLMKHYNFPEYNKLEEEKIMKRSKITWNEKKSHHLYCPMECNKERCYNRPRGPTQCYKLEQIGRNIETICEPFINEHNGACRPDFHHCAIAEPERNKKYSIYATDDVHFVPSQFVTIKGYNLHECLQFLVVKKNSACGPMTIEKNLMESEEILKEPVLSKVLYNEILFENIKISTPGEYNICLAQFYQDPEKDDILSENSANKYKKKKKNDMKVLGIDTIGTLYVLPLHEKQKTG
modifications: bait human Fc-tagged dimer
B2: 28 (protein)
chain: GVLSFKFNTIKNLNVHLEIVMYGLFHIYNYKLNFKIVCDNGYYYIFNDCFPCPQGYYNNINIIKTNVDFINKCMKCDKNKATLIEKSSNKADCLCNFGYEYIKNPADPQEFICSPCTRGMYKNTISNKLCDGNACTGNFATSVIGAKNIIESTCFCKPGFYVTYDYRGIEFCKECLLHFYCPGNVIGIQKCPIHNEALQPEKRINFDSLHGCFCKKGYEPINILNINKAGTRDEHYYKLFHNTYADKFKDINPKHICMECDIGYYKDTISFQPCKKCPNQATNKKYGSTSLNDCNTCHSGYYKNINKACSTCLPNHFCVGDLLQKDLDKYSGDAVICPNNAVTKKPYTQNGAFKDCLCIEGYIKNYQESYNINDHCKLVPLNFYKDSISNDLGTPCPVNSITLNVGAKTINECLCNKGYFYNVKKQQCEECPIGFYCPKISSKNNIKKPIKCPKNSASIKKGMYISNNCQCNFGYTKYIHIDNNQALLNNNIIKYDNKKTNKMFYSFLSNNYYNYKNKINYINKAYNNRNLILLRNIQNKNAIYKKKKRKNVLCIRCPPMTYKGTISNDPCEACPLNSRTIESVNNAHIFFCLCNPGYYLHEQMCKPCSFSKLYCTGENIYIISQSLYETALQEIKNIYVSKNNDMYKMILMNLALYDYSQNVNINNNNNNNNNNNIHNNNIYNIYNSINHYNNDNNIFVNPIVNNKLKHHNNIIYPPYNLLNSQVDTIPFLKKKYGNNINIANILDLNSLYKEPIQNNNNLNTILKSFFHKDNENLIYVKYQNFVTCGKNTVIPLGVDSSYTFDDCKCKKGYYLKSKDINNAIKICEPCKTGTFKNYVGDDTFCLHCPPKSTSLEGSIYPTHCFCKGGFFYSKGYCLECLEGALCKGGLNKNVMQRMKFNMENILITEKDHIKPHSNKNYYLDKSVIDVVDVSEWKFIKCPIKGACLEKNKCHKSMNNYLCIECAKGYTNSFMTSLCVKCPNNIANM
modifications: bait human Fc-tagged dimer
B3: 15 (protein)
chain: MAFFSIFIILNFFMLSLTSSLGNGFLHSSITFSNDFCKGMNLHFLISAEEIDSKFFLNKMLLLILGGSSYMRYSKENYFSVSIYDKKLVYKNIKKIENIQGASYYEQLQSAFKKHIKPSARRTNLYESLKEYYEKYIIGNKNIKKSKNIIIIVKKFTSDDLSEYHENLNRYIKEIRSKDVGIYFFSDDSIYSKNIILNIAESGYNMEVQYPIAHFVSESYRANDLFGVKKFCYQLLHGATCKSYNEWSEWSGPCEFERRQRIIPLKITNIESTNFRSHYDPSCRNVFDYSMSIKEDFRVNCKNSIYECRGICDKGYKFKPYAKSNEIVESYEECNDLPPCTRDQRKNGDHTLYADVILNSLLSESSIQQIRDRDDRALIEKDMP
modifications: bait human Fc-tagged dimer
B4: 16 (protein)
chain: NNLDKNKNFIQYKNFKKNKAYKYKNNNNNIIIINSHSHSNSHSNSHSHSNSHSNSHSHSNSHSNSHSHSNSHSHSHSNSHSNSHSHSSTQNSLYHDTNQANFLKPTSFFLYKHHVYFNQKYKKDPNILNKLKVPRNHIFHINKCDLNYYIQNYEFFFFFPDYYEYSHLYIRLDKLFYFQRCGCDTNIKKTKKRNQNIFNNMLGMKEKDTYLQNEICDIYWNYLKDDNTYDKYNFAIINYIKNIIKKMYRYLYIYKVFVLKQFYRIVYYNQGIRNFYYMLFSYIYNKGSIIYNYNQMYFKKHRKKQTIIRSKRFMNEHIKEEDVDYNIVKDEKDKSIQSTEQKSYLKNNAIQYFQCFLDKAMENKNAENELDKWIDPQSKSCYCSEEFAEPCTSEDLVDINNINQIMDNAFCEYNNNDNNNNDNNKNNNNNINNIINIYDNNILGDNVKNIFVALSEYKILQCNDKEKKDIIKKEQLYNYCKYGLNIWDNKNMYDYLNCLNVISYNKKDDKTCIRKCENIKKLCNIVAQFYSFEVCKKYYENNKHTEDIYINNFKYFSDHCKYIDPTNRGLVLCKHKNVECVYSQWSEWSTCSKTCIENEYDTNSARTRTRILLNKFEVPSKSCSFIINEKNNLMDINFCSYLPFCNKNNDMKKKDDERIMPFVISIKEIEKLNTLKYLNNDDNDLLNENYKNYESVHKNNECKVTDMYQYEYAISYNEKNKACSCPNNQAPCYFKDIYNSESWKKSLHILCKHNPHINVITADYIIIDCNMAISIKKKEIAVNTYLAMTFNCHSDIFQYIFCAKNIQSIRTN
modifications: bait human Fc-tagged dimer
B5: 12 (protein)
chain: SDTFRVFEDFDVRRKNKIWCCNLNHEKSYFHNKAINTAYKNRVLKESILLNLDLDMKKYKDNIITRKKTPENIYKEIYENNYEMKYDEDIPNNMAEEKRDEKEVIEHLEIDEKNGKQYKSDINKPVSLSHLKQYKNIYVNNNNKINKKKSIDKHLPSYNLERKNNKYLNFLLVDNRNEAYTFMVPMKFYINHEMYNIADEEYNKLMEDNSVDVYLNNILVEYKYENFEIKEGEVDGEVEGEGEVEGEVEGEVKGKVVEGIENNMNEEEKYNKDNKDKENQINSNGQDENTEFQENDNNDAVIMKYT
modifications: bait human Fc-tagged dimer
B6: 41 (protein)
chain: VYNVKTQKNEGIIIDKEGKENDNGNSDRNTPNNNNRLNRMTLNKEMYEKHNKMNNEEDNNKNINYDLSNLKDGMKKKHFGSNSAEDKTNKKSSINSVLEKYQHTKHEEKNLQNLNKNMMTHENDDSMKSIFISEESFESAKNVCQFIVMQNDYFKNFCNIASLVYDIEKLKKNNHKIYEEILSNSYENNNGAKFKLLKEINHAKVFKEMDNTNPKFSILFLYDKFCYGGIPLACSNLMKYDNVFDINEQSETTNKPDDNVNMEEMENYIINQAGMENGFEENVADLTQE
modifications: bait human Fc-tagged dimer
B7: 52 (protein)
chain: AEEHEITHKTYFDITIDDKPLGRIVFGLYGKVAPKTVENFVSICKGTVVDGKMLHYTNSIFHRIIPNFMAQGGDITNFNGAGGLSIYGKKFEDENFKVNHAKRGLLSMANAGKNTNGAQFFILFIPTPWLDGRHVVFGEVVEGLDKLVHIEAVGTDSGEPLKRVLVKESGELPL
modifications: bait human Fc-tagged dimer
B8: 17 (protein)
chain: ANIDKVNLARNFLFSYIQKNLYYTRSYFNVAQLFSTLQIFLDQFCYPGLGRCIPYINKCLCYDKSKMKPKTAKSCLNNCGVISLCSGYPYGPGYKIIPNEFINNRKVVTCVVSSLQNKLDRTCGYNKKLRFNENKIYCIPYDLLDMNLAGIYCVNNNKEKIFCKGFLRQIYTNLKEYEILDIAYHNFILNNPCNEHIYDDGTNYKGCQDTSISGRKCLHWNSLNMEKVLPYLYLHNYCRNPEGLSYIYCYVDNNGIITREYCKSRSNIIFNNIAYSREKYFHFDITMKNVADFRIKLDNKPCNQRYFVNNHRINEFTYDKRNYAYHNINGEIALTISFKNFAYNTYYDYKLYICACFKYYYTNDLVICSTDNYKVEIGSFLITKAYTDKDTNVFYLNRQYNLAFNINYEIIKNEIYIIKGDYAYECNHLRIIGNDNIHMITNMNILFNYYKNQNFQKIHPPLEPNKKYSYIYSYFDPILDLSSILRKNELFINPQSSNIIKGYQNVDNLNNDGKTNSKSKFAKNKHMLQNGAP
modifications: bait human Fc-tagged dimer
B9: 18 (protein)
chain: KENKNDNFLNGIYKLQNIWRNTALGELDLKKANIENAEGIIEKFNDANKADFNQHPHFRSKLSFLEHKNHKDMGIVTNHQNKDHKKNEYTSEEIIDMKPQLASQEMWRKGENFYMHGATNTNEQNDDEDLFESFHKNHNSNIKINSPCFDLQDKEMCSNNKECFYDDAYKACFQNCALVNEKKCSLYSECKHTPNGCQNEGYLNIQVFGSNLGGDVRACELFESEGSCYLMEKLFKKLSEEKKETSFNCVWISYKHELRSYDDENEPKENNDNIVALENKNKYMYMNNVESIHNNHHLENPYHEDIKHNKHKSFNYHVLSSSVPRQIAKNEKFLSLLQLNLKGKKKEKNKKKKKDDEDDDDIDEEDDDLDIEGKNNEFNADEEENSKDLKNNNIDDNEEDGTTDEDDLFNNKKKKKNNNNNNANNNNNKNKNKQNTNKKNNKIINEFDDDIDEVSEENLLNDEEKKQNKIKNKNINEANNIAENNEIEISSKDLTEQYEDKYNYDKKNNMGTNNNFNNANTFANNKNNLHNKYINHASHTQNEKDILKHNFYGKDNNGAYEIIKVETHICANLNEKPNPSTLLEGALIAENEAQLQKIKKKYKVTDNEICVRPTNSAYVSLIPDKKYYLLGEKIEFKCQEGYKIIGTTNIGVCTGRNIISPNIACESLTNFDDVEKDNIQKMNNIINS
modifications: bait human Fc-tagged dimer
B10: 66 (protein)
chain: KIISCVIQKNPILHLWKIYSFQKCPHNYYCEQESLKKKKCPPNSIKTIYDGTINDCLCLPGYYLKGNIQTCIPCEKGSYKNTISNDACIKCPINFATLFETSKSVYDCVCRKGYYFSWNTNIDTNDIEKKNIYNNNINSIYRNKNEIKLIKELEEEYAFNVEKKRKNKHKFILHKKLNNRYRENIHKKQISLKRKIKFLNEQKEINNHLNFLHVNEILNIAFFNDNQNYIYKNKNKQENDANIEINPVSKQTSLHSNNIANKYMRNNFLQINEKLYINNANNNYNEYIHKAQCTKCPRKMFCPGYWLENYENEIHHPPIYCPKGSLILGTTIESTDIHKCICRKGYSINLAIKPNRNKNVNVNDNDNGNNNNNANNNNNNANGNSATLNNNNNMCVMCKEGYYKDVIDNSVCAGLCIEFSTSFKGSISKKQCFCTVGKYMIQDEKDENKCINCAKGSICIGGFKFKSLRELIKNQYYINLNIYDHSIPLPKKGYFATFQINHEDFKWKPLNSLHIEINNYEKGNIIITDKIILNVFHKKLHLINIGEKNKYDQADQGIYIKKNLNNNAFIHNNNNIKYIVEESKHLRDRTMANIPNEPILVNEKLEPIIYKNNFLMIDRIPDFHLCPISNRCMGTSSNLCFKGSEGYLCNNCANSYDVIHFRSQCIKCRKKKTEM
modifications: bait human Fc-tagged dimer

The target of the experiment is FGFR4 ectodomain (Homo sapiens, UniProt P22455). The experiment in a line: AVEXIS normalised luminescence.
With B1, the binding score amounted to 0.733.

For the molecule B2, the binding score was found to be 0.857.

As for B3, the binding score worked out at 0.902.

With B4, the binding score worked out at 1.5.

B5 returned a binding score of 0.891.

The molecule B6 came in with a binding score of 1.23.

The molecule B7 registered a binding score of 1.22.

Consider B8, for which the binding score was found to be 0.943.

Molecule B9 came in with a binding score of 1.

In the case of B10, the binding score was 0.776.
